Measurements from the supplement of paper PMC9170038.

Tested on: MS2 coat protein
Test: apparent KD of MS2 coat protein; designed switch direction (-1 OFF switch, 1 ON switch): -1; higher = weaker reporter binding
In short: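 SNAP-549-labelled MS2 coat protein was titrated, doubling from 0.7 or 1.5 nM to 3 µM, over designed RNA switches transcribed on Illumina chips by stalled E. coli RNA polymerase. Runs were done without input, with 200 uM small-molecule ligand, or with an oligonucleotide input. Apparent KD is the per-design median over clusters of curve-fitted normalised fluorescence.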

[1] = Eterna round: R95, input ligand: microRNA oligo, concentration not stated
[2] = Eterna round: R95, input ligand: FMN 200 uM
[3] = Eterna round: R95, input ligand: none
[4] = input ligand: microRNA oligo, concentration not stated

Sequence	apparent KD of MS2 coat protein [1] [nM]	apparent KD of MS2 coat protein (input ligand: FMN 200 uM) [nM]	apparent KD of MS2 coat protein (input ligand: none) [nM]	apparent KD of MS2 coat protein [2] [nM]	apparent KD of MS2 coat protein [3] [nM]	apparent KD of MS2 coat protein [4] [nM]
AUACCACGAGGAUAUCGUCUAUAAUACAUGAGGAUCACCCAUGUUAUAUCUGUAAUGUUUCGAGAAGGCGUGUGUU [JR_E5_Sub084] (puzzle: Exclusion 5)	17.9					
GGUGCGUAUGUGAGGAUAUGCUGGUCCUUGGGUCGGCAGAAGGCACAUGAGGAUCACCCAUGUGGUGUCGUUCC [salish99_Bmod_ex4_101] (puzzle: Brourd's mod of Exclusion 4)	68					
GGUGAAGCAGGAUAUGUACCAAUAUACAUGAGGAUCACCCAUGUCAUGUAGGAACUGCGUAUAGAAGGGCUUCACC [Exclusion 5 (FMN-MS2 slide v.7)] (Eterna round: R97, puzzle: Exclusion 5)		123	55			
CUGGUCCGAGGAUAUAUUAAGUGAUACAUGAGGAUCACCCAUGUUAUUUAAUGGAUAUUAAUAGAAGGCGGACUAG [Mat - Exclusion 5 - JL mod - D77] (puzzle: Exclusion 5)	28.4			34.1	25.5	
AUGGACGCAGGAUAUACAUGAGGAUCACCCAUGUGAGGUUGGUAAGUAGGAAGUGAAGGUAGAAGGGCGAGAGA [JR_Exclu3_Sub097] (puzzle: Exclusion 3)	74.8			107	84.3	
GUGCCGCGAGGAUAUACAGACGGGUCCAUAACGUGUCUCGGACUUGAGGAUCACCCAAGUAGAAGGCGUUUCAG [salish99_ex2_r4_623] (Eterna round: R97, puzzle: Exclusion 2)		19.9	20.8			
GAGCAGCGAGGAUAUACAGACGGGUCCAGUACGUGUCUUGGACUUGAGGAUCACCCAAGUAGAAGGCGCCACAG [salish99_ex2_r4_605] (Eterna round: R97, puzzle: Exclusion 2)		42.6	25.8			
AUUUAAUUUAAUAAGAUCACAUGAGGAUCACCCAUGUUAUAAUAGGAUAUCAGCUCGAUUAGAGCUGAGAAGGAUUAUAACAUG [ExNG3/9-A1] (Eterna round: R96, puzzle: Exclusion NG 3)		35.3	28.8			20.1
UCAAGCUUUAGGCGUGUGAACAUGAGGAUCACCCAUGUAUUUUUGGUUAGGAGUUCUGUAAGGGAUGCUCGUCUUAU [JR_SWV3TOV1_Sub092] (puzzle: Sensor v3, turn-off variant 1)	54.8			57.5	75.8	
UUACGGCGGAUCGUGGCUUUUUGCUCGUCUUGUGCUACAACAUGAGGAUCACCCAUGUAGAGGUGAUCCGUUGUAUU [Grok-var2-19 mod JAL] (puzzle: Sensor v3, turn-off variant 2)	22.3			92.4	120	
GAUCAACAUGAGGAUCACCCAUGUGAGGAUAUGAUACUAUGUACUUCGGUACAUAGUAUCAGAAGGCAUAUAAA [Ex1-3: 37] (puzzle: Exclusion 1)	40.4					
UUGAAUUAUAAGGAUAUGGGAGUCGAUAGACACCCAGAAGGUAUAACAUGAGGAUCACCCAUGUGUCCUAUCAA [Mod of Eli 25 - Jieux - Exclusion 6] (Eterna round: R97, puzzle: Exclusion 6)		33.6	18.2			
ACAAGCUUUUUGCUCGAAGAGUAGAAACGUGAGAGCGAAACAUGAGGAUCACCCAUGUAAAGGCAGUAGGUGAAGAU [JR_SV3TOV2_Sub024] (puzzle: Sensor v3, turn-off variant 2)	57.4			39.8	57.2	
UAUAUAUAGUAAGGAUAUGUAUAUAUUUUAUAGACAGAAGGUACUGACAUGAGGAUCACCCAUGUUUUAGUGUGGGCAUGUAGA [JMF's solution 72] (Eterna round: R96, puzzle: Exclusion NG 1)		105	50.5			50.4
AUUAAUGUCAAAGGAUAUCAGCACGUGUAGUGCUGAGAAGGUUGAACAUGAGGAUCACCCAUGUAGAUCAUUAAUAAUUUAAUU [ENG1/10-B3] (Eterna round: R96, puzzle: Exclusion NG 1)		25.5	20.6			14.5
AAGUACUACAAGCUUAGGGACAUGAGGAUCACCCAUGUUCGUCUUAUUGAUCUAGGUACGCUGACGUACCUAGAUCU [Mat - Sensor v3 - turn-off var 1 - JL Mod - D9] (puzzle: Sensor v3, turn-off variant 1)	58.6			15.2	13.2	
AAUUAACUAGGAUAUACUUGAGGAUCACCCAAGUGGGCUCCACCUGCUUGGCUCCCAGGUAGAAGGAGUAUACA [Tioner] (Eterna round: R97, puzzle: Exclusion 3)		213	538			

Sequence	apparent KD of MS2 coat protein [1] [nM]	apparent KD of MS2 coat protein (input ligand: FMN 200 uM) [nM]	apparent KD of MS2 coat protein (input ligand: none) [nM]	apparent KD of MS2 coat protein [2] [nM]	apparent KD of MS2 coat protein [3] [nM]	apparent KD of MS2 coat protein [4] [nM]
CCCUCGGGAGGAUAUGGGUGUUUUUACAUGAGGAUCACCCAUGUGGAGUAGCAUGUGGGUCCAGAAGGCCCAAGGG [-27.5, -25.8 kcal, 22% A] (Eterna round: R97, puzzle: Exclusion 5)		873	815			
GAAAAGGUAGGAUAUACGUAAAAAAAGGGUAGAAAAAAAACACAUGAGGAUCACCCAUGUAGAAGGACCAAAAG [salish99_ex2_r3_087] (puzzle: Exclusion 2)	24.7			88.3	20.6	
AAUAACAGAGGAUAUACUAUUUUAUGUGUUUAUUGUUUUGAACAUGAGGAUCACCCAUGUAGAAGGCUGAUUAA [JMF 51] (puzzle: Exclusion 2)	35.3					
GGAUUUACUGAGGAUAUUGCAUCACCCGAUUGAUAAGAAGGCAGAACAUGAGGAUCACCCAUGUGGGUAGUCAA [Bingo-Bango-2] (Eterna round: R97, puzzle: Exclusion 6)		80.2	39.3			
CUGCUGGAGCGGCGCUUUGGUCGUACAUGAGGAUCACCCAUGUAGGAUAUGGUAAAAUUUGCUUGCUAGAAGGAUAGAGUGGUC [salish99_ExNG3_r04_615] (Eterna round: R96, puzzle: Exclusion NG 3)		140	80.3			64.5
GUGCACGUAGGAUAUUAGAAGGAGAACAUGAGGAUCACCCAUGUUAUCCAUCACCUCCGCUAAGAAGGAUGGCCAC [EX5 C.6] (Eterna round: R97, puzzle: Exclusion 5)		14.1	13			
UGUUGUUCAGGAUAUGAUGUAUAAUACAUGAGGAUCACCCAUGUAGAUCCUGAAUUAACAUCAGAAGGGAAUGUUG [salish99_ex5_r4_102] (Eterna round: R97, puzzle: Exclusion 5)		19.4	15.2			
AAUAACAAGCCGAUCCUAAACAUGAGGAUCACCCAUGUGCUCGUCUUGUAAAGUACUAUCACGAAAGUGAUAGUACA (puzzle: Sensor v3, turn-off variant 1)	345			16.3	14.5	
CUUUCGUGAGGAUAUCAGUAGUAAUAAAAUAAAAUUACUACUGAGAAGGCACAUGAGGAUCACCCAUGUUCCUC [salish99_ex3_r3_098] (puzzle: Exclusion 4)	23.5					
AAUACAAGCUAUUGAUCCCACAUGAGGAUCACCCAUGUGCCUGGCCGUGAGACCAGGUUUACAAUAGCUCGUCUUAU [Sensor-V1 #47] (Eterna round: R97, puzzle: Sensor, turn-off variant 1)		23.5	23.5			
AGAAAGCAAGGAUAUACAAGGAAACGACGGAAAGUAGAGAGACAUGAGGAUCACCCAUGUAGAAGGUGCGAGAA [JR_Exclu2_Sub032] (puzzle: Exclusion 2)	28.7			33.8	26.5	
UUUAAUUUUUUUUUUUUACAAGCUUUUUGCUCGUCUUAUACAUGAGGAUCACCCAUGUGAAUGGGAGGUAAAUUAUC [JMF 73] (puzzle: Sensor v3, turn-off variant 2)	192			175	116	
CCUUCCCGAGGAUAUACAUGAGGAUCACCCAUGUGAUCCUAAGGCUGAUCAAGCCUAUGUAGAAGGCGCAAAUC [salish99_ex3_r4_006] (Eterna round: R97, puzzle: Exclusion 3)		35.1	38.4			
CAUGAUCUUCGGAAAAUGUACAUGAGGAUCACCCAUGUGACGAGUUACAUGAAAAACAAGCUUUUUGCUCGUCUUAU [Sensor v3 - Turn-off variant 1 - 10] (puzzle: Sensor v3, turn-off variant 1)	288			411	623	
AAAUAAUAGAUAAAAUAAUACAUGAGGAUCACCCAUGUGCGAUGUUGAGGGUGAUACAGGCUUUUUGCUCGUCUUAU (puzzle: Sensor v3, turn-off variant 1)	20.5			177	67.9	
GGAUCACAUGUGAGGAUAUGCAGGUCCUUGGAUCUGCAGAAGGCACAUGAGGAUCACCCAUGUGAUCAAGAUCC [Mat - Exclusion 4 - Eli Mod - D49] (Eterna round: R97, puzzle: Brourd's mod of Exclusion 4)		47.4	61.2			
CAUUCCUAGCGAGGAUAUCAGUAAAAGGGAAGCUGAGAAGGCGCAAACAUGAGGAUCACCCAUGUCACACGCGGGUAGUUUUCC [Uslazaxe] (Eterna round: R96, puzzle: Exclusion NG 1)		16.2	14.3			10.8
